# Test results: patent US20100204100A1, “BIOLOGICAL AGENTS ACTIVE IN CENTRAL NERVOUS SYSTEM” (THE JOHNS HOPKINS UNIVERISTY, priority 2007, published 2010)
# Changes are numbered by the printed parent chain. Names and notes keep the numbering of the source. “Also recorded” adds a separate entry of the source.
# B1: Tat-PSD-95 PDZ2: His-tagged fusion peptide: HIV Tat minimal transduction domain (residues 47-57) fused to the second PDZ domain of PSD-95 (protein)
# chain: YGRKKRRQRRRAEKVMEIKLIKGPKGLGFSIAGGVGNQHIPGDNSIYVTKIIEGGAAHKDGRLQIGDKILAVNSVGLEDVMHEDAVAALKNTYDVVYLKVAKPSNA
# B2: mutated Tat-PSD-95 PDZ2: Control fusion peptide: Tat-PSD-95 PDZ2 with three sites critical for NMDAR/PSD-95 interaction mutated (K165T, L170R and H182L) (protein)
# chain: B1 chain with K22T, L27R, H39L
# B3: PSD-95 PDZ2: Control peptide containing the same sequences as Tat-PSD-95 PDZ2 but without Tat PTD (protein)
# chain: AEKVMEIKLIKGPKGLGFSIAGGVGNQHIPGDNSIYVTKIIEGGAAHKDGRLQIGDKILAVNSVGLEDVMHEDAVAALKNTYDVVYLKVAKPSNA
# Tests used:
# [1] = test system: interaction between NR2A/2B and PSD-95; experiment: In vivo binding assay (co-immunoprecipitation) from spinal cord homogenates of treated mice; parameters: species or system mouse; details: 8 mg/kg intraperitoneal
# Protocol: In Vitro and In Vivo Binding Assays. […] Membrane-bound proteins from the spinal lumbar enlargement segments were extracted as described previously (Tao, et al., 2003a). For in vitro binding experiments (GST pull-down), the solubilized membrane fraction and GST fusion peptide were first preincubated with different concentrations of Tat-PSD-95 PDZ2 at room temperature for 30 min. Then the membrane fraction was mixed with the GST fusion peptide at room temperature for 1 h. The resin was washed five times with washing buffer (PBS plus 500 mM NaCl and 0.1% Triton X-100) and then boiled in 1×SDS-PAGE sample buffer to elute the bound proteins. After being separated by electrophoresis, the proteins were detected by immunoblotting with anti-GST antibody (Santa Cruz Biotechnology, Santa Cruz, Calif.) and anti-NR2B antibody (Upstate Biotechnology, Lake Placid, N.Y.). For in vivo binding experiments (co-immunoprecipitation), 5 μg of the affinity-purified rabbit NR2A/2B antibody (Chemicon, Temecula, Calif.) was incubated with 100 μl of protein A-Sepharose slurry for 1 h, and the complex was spun down at 2000 rpm for 4 min. The solubilized membrane fraction (500 μg) from the different groups of treated mice as mentioned-above then was added to the Sepharose beads, and the mixture was incubated for 2-3 h at 4° C. The mixture was washed once with 1% Triton X-100 in immunoprecipitation buffer [containing (in mM): 137 sodium chloride, 2.7 potassium chloride, 4.3 disodium hydrogen phosphate, 1.4 potassium dihydrogen phosphate, 5 ethylene glycol tetraacetic acid, 1 sodium vanadate, 10 sodium pyrophosphate, 50 sodium fluoride, 0.1 phenylmethylsulfonyl fluoride, and 20 U/ml Trasylol], twice with 1% Triton X-100 in immunoprecipitation buffer plus 300 mM sodium chloride, and three times with immunoprecipitation buffer. The proteins were separated by SDS-PAGE and detected by NR2A/2B or PSD-95 antibody (Upstate Biotechnology, Lake Placid, N.Y.). As a positive control (input), 50 μg of the solubilized membrane fraction was loaded onto the gel. […]
# [2] = test system: CFA-induced inflammatory pain behaviors; experiment: CFA-induced inflammatory pain behaviors, paw withdrawal threshold (von Frey filaments); type: in vivo, mouse; details: vs vehicle
# Protocol: Intrathecal Injection of Tat Fusion Peptides. Intrathecal injection was performed in unanesthetized mice as previously described (Hylden and Wilcox, 1980; Tao, et al., 2003b; Tao, et al., 2004). In brief, the mouse was held firmly by the pelvic girdle in one hand, while a 10-μl Luer tip syringe with a 30 gauge 0.5-inch needle was held in the other hand at an angle of about 20° above the vertebral column. The needle was inserted into the tissue to one side of the L5 or L6 spinous process so that it slipped into the groove between the spinous and transverse processes. The needle was then moved carefully forward to the intervertebral space as the angle of the syringe was decreased to about 10°. […] The injection volume was 5 μl. The mice, assigned randomly to the experimental groups of 6-8, were given intrathecally Tat-PSD-95 PDZ2 or control peptide (mutated Tat-PSD-95 PDZ2 or PSD-95 PDZ2 without Tat PTD) 30 min before behavioral testing. Behavioral Analysis. Mechanical sensitivity of the mice was measured with von Frey filaments (Stoelting, Wood Dale, Ill.) as described previously (Yang and Gereau, 2003). Mice were placed in Plexiglas testing boxes with a 1×1 cm^2 wire-mesh grid floor and habituated for 3 h before experiments. Each von Frey filament was applied to the mouse hind paw in ascending order until it bent at approximately 30° for about 3 s. The smallest filament that evoked a paw withdrawal response was taken as the mechanical threshold (paw withdrawal threshold). Similar sites were selected for measuring mechanical thresholds in all tested animals, and the thresholds were measured at approximately the same site throughout the experiment for each individual animal. Two to three measurements were made before CFA or fusion peptides injection, and the average was calculated as the baseline. Established inflammatory pain behaviors were induced by intraplantar injection of CFA solution (20 μl, 1 mg/ml). To observe the effect of Tat-PSD-95 PDZ2 on the development of CFA-induced established inflammatory pain, the mice were given intraperitoneally Tat-PSD-95 PDZ2 or control peptide (mutated Tat-PSD-95 PDZ2 or PSD-95 PDZ2 without Tat) 2 h before CFA injection or intrathecally these peptides 1.5 h after CFA injection (development protocol); on the other hand, to observe the effect of Tat-PSD-95 PDZ2 on the maintenance of CFA-induced established inflammatory pain, the mice were given intraperitoneally these peptides 20 h after CFA injection or intrathecally these peptides 23.5 h after CFA injection (maintenance protocol). Behavioral measurements were conducted 2 h after CFA injection for the “development protocol” and 24 h after CFA injection for the “maintenance protocol”. The effect of Tat fusion peptide on CFA-induced established inflammatory pain behaviors was expressed as % of baseline.
# [3] = test system: threshold for halothane anesthesia; experiment: Determination of halothane RREC50 (righting reflex); type: in vivo, mouse; details: mice; for halothane RREC50: mean±S.E.M., vehicle 0.48±0.02; for effect on halothane RREC50: intraperitoneal injection, dose series
# Protocol: The purified fusion peptides at the indicated amounts were injected intraperitoneally into mice in 300 μl of phosphate-buffered saline and 10% glycerol. The mice were given Tat-PSD-95 PDZ2 or control peptide (mutated Tat-PSD-95 PDZ2 or PSD-95 PDZ2 without Tat) 4 h before MAC measurement and righting reflex testing. All the animals were assigned randomly to experimental groups consisting of 6-8 animals each. Western blot analysis was then used to verify the CNS delivery of these fusion peptides after intraperitoneal injection. Following the measurement of MAC, the halothane concentration was halved for 10 min and the animal turned on its back to test the righting reflex defined as a return onto all four paws within 1 min^20-22. […] RREC50 was calculated for each mouse as the mean value of the anesthetic concentrations that just permitted and just prevented the righting reflex.
# [4] = intraperitoneal, Tat-PSD-95 PDZ2 2, 4, 8 mg/kg, control peptides 8 mg/kg, development and maintenance phases
# [5] = intrathecal, Tat-PSD-95 PDZ2 2.5, 5, 10 μg/5 μl, control peptides 10 μg/5 μl
Molecule,"effect on interaction between NR2A/2B and PSD-95, co-immunoprecipitation [1]","effect on CFA-induced decrease of paw withdrawal threshold, ipsilateral side [2, 4]","effect on CFA-induced decrease of paw withdrawal threshold, ipsilateral side [2, 5]",halothane RREC50 ([3]; 2 mg/kg intraperitoneal),halothane RREC50 ([3]; 4 mg/kg intraperitoneal),halothane RREC50 ([3]; 8 mg/kg intraperitoneal),effect on halothane RREC50 [3],effect on halothane RREC50 compared to vehicle-treated group ([3]; two higher doses (4 and 8 mg/kg) intraperitoneal),effect on halothane RREC50 compared to vehicle-treated group ([3]; 8 mg/kg intraperitoneal)
B1,markedly disrupted; also recorded: markedly blocked,significantly inhibited; also recorded: dose-dependently inhibited,significantly inhibited; also recorded: dose-dependently inhibited,0.45±0.03,0.37±0.03,0.18±0.02,dose-dependently reduced,significantly reduced,
B2,no effect; also recorded: neither mutated Tat-PSD-95 PDZ2 (8 mg/kg) nor PSD-95 PDZ2 (8 mg/kg) had an effect,no effect,no effect,,,,no effect,,no effect
B3,neither mutated Tat-PSD-95 PDZ2 (8 mg/kg) nor PSD-95 PDZ2 (8 mg/kg) had an effect,no effect,no effect,,,,no effect,,no effect
